{"source": "patent EP1237001A1", "about": "“SCREENING METHOD” (Takeda Chemical Industries, Ltd., priority 1999, dated 2001)", "data": [{"target": "T1, FM-3 (Homo sapiens, UniProt Q9HB89)", "T1 sequence (Q9HB89 24-426 limits assumed)": "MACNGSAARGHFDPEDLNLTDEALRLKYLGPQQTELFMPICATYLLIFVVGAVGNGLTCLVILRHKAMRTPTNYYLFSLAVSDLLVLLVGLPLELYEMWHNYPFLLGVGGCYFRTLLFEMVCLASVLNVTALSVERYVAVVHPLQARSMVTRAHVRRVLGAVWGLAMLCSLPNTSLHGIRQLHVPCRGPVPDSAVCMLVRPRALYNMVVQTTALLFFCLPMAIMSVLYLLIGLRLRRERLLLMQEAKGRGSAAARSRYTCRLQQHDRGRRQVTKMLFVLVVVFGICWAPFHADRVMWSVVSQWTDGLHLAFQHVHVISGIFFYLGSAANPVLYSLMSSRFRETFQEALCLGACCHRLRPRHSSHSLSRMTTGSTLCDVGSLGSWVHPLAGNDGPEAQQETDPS", "test": "not given", "conditions": "labeled ligand; cells confirmed to express FM-3 on the cell membrane; Tan et al., Genomics 52, 223-229, 1998; cited from earlier work", "values": [{"substance": "Neurotensin: labeled Neurotensin, peptide ligand of the Neurotensin receptor", "binding with cells expressing FM-3": "did not bind"}]}, {"target": "T2, FM-3 (Homo sapiens, UniProt Q9HB89)", "T2 sequence (Q9HB89 1-426)": "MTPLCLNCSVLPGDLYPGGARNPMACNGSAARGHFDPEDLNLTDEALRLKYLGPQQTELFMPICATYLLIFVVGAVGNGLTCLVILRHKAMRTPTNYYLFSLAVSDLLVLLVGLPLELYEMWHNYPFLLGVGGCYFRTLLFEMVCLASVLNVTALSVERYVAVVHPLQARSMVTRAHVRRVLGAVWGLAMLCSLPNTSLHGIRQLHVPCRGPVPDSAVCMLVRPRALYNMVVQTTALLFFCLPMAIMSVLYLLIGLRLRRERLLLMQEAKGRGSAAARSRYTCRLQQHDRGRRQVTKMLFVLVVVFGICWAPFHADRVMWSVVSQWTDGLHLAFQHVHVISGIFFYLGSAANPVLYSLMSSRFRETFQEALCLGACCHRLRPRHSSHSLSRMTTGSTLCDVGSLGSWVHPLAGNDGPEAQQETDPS", "test": "not given", "conditions": "free intracellular calcium ion release measured as an index; Tan et al.; cited from earlier work", "values": [{"substance": "VIP: vasoactive intestinal peptide, examined for activation of FM-3", "activation of FM-3": "not detected"}, {"substance": "calcitonin: peptide examined for activation of FM-3", "activation of FM-3": "not detected"}, {"substance": "endothelin", "activation of FM-3": "not detected"}, {"substance": "galanin: peptide examined for activation of FM-3", "activation of FM-3": "not detected"}, {"substance": "growth hormone releasing hormone: peptide examined for activation of FM-3", "activation of FM-3": "not detected"}, {"substance": "somatostatin: peptide examined for activation of FM-3", "activation of FM-3": "not detected"}, {"substance": "thyrotropin releasing hormone", "activation of FM-3": "not detected"}]}, {"target": "T1, FM-3", "test": "site sensor assay of cell-stimulating activity (extracellular acidification rate)", "type": "cell-based", "parameters": "expressed in transfected cells", "conditions": "FM-3-expressing CHO cells versus mock CHO cells; exposure for 7 minutes and 2 seconds; 3 cycles before exposure set as 100 %; Fig. 1", "method": "Pig Neuromedin U-8 at the concentration indicated in FIG. 1 was added to FM-3-expressing CHO cells (●) and mock CHO cells (○) for 7 minutes and 2 seconds in the site sensor assay. The maximum value of acidification rate in the reaction was plotted.\nFM-3-expressing CHO cells and mock CHO cells, which were cultured in a cell-cultured container, were digested with trypsin and dissociated. The numbers of cells are counted. Then, the cells were inoculated in the capsules for site sensor (2.7 x 10^5 cells/capsule). After incubating them overnight, the capsules containing the cells were transferred to the sensor chamber for measurement, and then mounted to the workstation of the site sensor. The portion containing the cells was refluxed with low-buffered RMPI medium supplemented with 0.1% bovine serum albumin, and it was left still until the acidification rate became stable. The measurement of the acidification rate was made during pumping cycle of ON for 80 seconds and OFF for 40 seconds(2 minutes to one cycle). A rate of change in extracellular pH from 8 to 30 seconds after the pumping off was calculated as an acidification rate with the site sensor.\nPig Neuromedin-8 (BACHEM, H-5505, SEQ ID NO:5) was dissolved in distilled water at the concentration of 10mM, and then the gradually diluted solutions were prepared with low buffered RPMI medium containing 0.1% BSA. […]", "values": [{"substance": "Pig Neuromedin-8: pig Neuromedin U-8, peptide of 8 amino acid residues, BACHEM, H-5505, SEQ ID NO:5", "cell-stimulating activity (acidification rate)": "detected in a does-dependent manner and specific to FM-3-expressing CHO cells"}]}]}
